In a protein production outcome set (Wang et al. 2014):

Assay: label from the status in PepcDB records

## MKLIKNGKVLQNGELQQADILIDGKVIKQIAPAIEPSNGVDIIDAKGHFVSPGFVDVHVHLREPGGEYKETIETGTKAAARGGFTTVCPMPNTRPVPDSVEHFEALQKLIDDNAQVRVLPYASITTRQLGKELVDFPALVKEGAFAFTDDGVGVQTASMMYEGMIEAAKVNKAIVAHCEDNSLIYGGAMHEGKRSKELGIPGIPNICESVQIARDVLLAEAAGCHYHVCHVSTKESVRVIRDAKRAGIHVTAEVTPHHLLLTEDDIPGNNAIYKMNPPLRSTEDREALLEGLLDGTIDCIATDHAPHARDEKAQPMEKAPFGIVGSETAFPLLYTHFVKNGDWTLQQLVDYLTIKPCETFNLEYGTLKENGYADLTIIDLDSEQEIKGEDFLSKADNTPFIGYKVYGNPILTMVEGEVKFEGDK
  protein production: failed

## MAANNRRMSGKKGAQVGSGGKRRRGLEGKGPTPPAEMRKGHAKQRAANAKARRTTGGRPQQRRGGGRSTSELVVGRNPVYEALREGVPASTLYVQQFIDNDERVREALQLAAERGGINLMEAPRPELDRMTNGLNHQGLVLQVPPYEYAHPEDLVAAAHDEGIDPLIVALDGVTDPRNLGAVVRSVSAFGGHGVVVPERRAAGMTAGAWKTSAGTAARTPVARATNLTRALEQYQKAGITVVGLAADGEAELGDLAALDGPVVIVVGSEGKGLSRLVGETCDFRVRIPMPGGAESLNAGVAAGIVLYEAARRRS
  protein production: failed

## MKHYFSCLKGDTIKAIFLVCLAVGVVGMSYGSLAMAYGFPLWVPFVLSIFVLAGASEFMFIGIVASGGNPLAAAAAGLLVNARHVPFGVTVRDLVGTRAASFFGCHIMNDESVVFGLSQKTPEQRKAAYWLCGLGVALFWPIGTLIGAGVGKLLPAPETIGLDAVFPAILLALVIPAFKNRTTLIRGCSGAALSLAAVPFVAAGLPVLLSLLGLLARKK
  protein production: failed

## MHVISTSKKTVLSDFADLETKSEYVHQNAEPTDFQFNGQRRVFVEVDKMAGLAVMRIKEKDGKTPEIQRVRKLTIDNAFCVACAKQSLEEIAVGQSGCVKLYNFRTAQLIHRFPADPQRSTVLYMDYNNTDEYIAAVRDGGDISILGTKTKQKTNTFTIDGDSTLVRFHPSKRFHLSIASYKGAVTVYDVQGMRKIFHASEAHSAPCRDISMCTSQPALLVSVGYDCKINIFDIRRNRAQASTDRLTYSHPLSTVALSECGTYLCAGNLKGELIAYDMRSTKAPLAVRSVHDAAVTRVAFVPVPSGDNQQNGSLNSSENATGLATEAPRVERAPSDELRKSIAANLLSTQNQLTSLGYGVSTPTIVRRDSFCEFLDAQGPRAVDRMSTRLGASYRDSFDWETLNRKPQPYETANRQSLCPPVASGPSSVDNSVNSSTTESLQQTLSGPLKDRSNISGDGKLMKIAETDELCEEQSANISVASSTGGGSDKENPPPVDAEMKRRLRLLSASRNSTPHHANITPQSSNPLLKPQQLLAKSSSGLSAQMDADWRKEFSELRDFVDQRCEKVERELEYVTFSNQRLLANKMTNYMDQQVENTREIRDALALLLQGDSFMREFSRLQNENEMLKAKLKFYQEQEQTESCGE
  protein production: failed

## MAPNASCLCVHVRSEEWDLMTFDANPYDSVKKIKEHVRSKTKVPVQDQVLLLGSKILKPRRSLSSYGIDKEKTIHLTLKVVKPSDEELP
  protein production: failed

## MGVSEISRSEEKSGIGFVKLFENNVVFPGFLVWMNQTIQEPLKAEFKRLRNVKELSLKSVSKIETAYEEHRDEEKLEKQLQAWRDNPSWIDQPPKVVVKSQNGLFCHLNIEADVGLPPELVYNIFTHPDNKRYFKNIKENISRKVLIDEGPKQTVEVKQAAAWKFLWWDGTCPIHLIVEENRKNLTSKYKQETTMFMKVFEGCWKVEPLFIDEHLCDRSKPKSQKDYHSCSNGRGRIGSKVTMDQMFQPSALLTPPPLSWYIRGITIKTTESMIEDLFAEATRLRGGKGGGYIDDQGENNVVTEKSKADDIKERWRSHRRSKRRRFTTARSM
  protein production: failed

## NANLDPKTRVLEHRLLAASSAIAEKLGVSAGDEVLLIRRLRSTGDIPVAILENYLPPAFNDVSLDELEKGGLYDALRSRGVVLKIANQKIGARRAVGEESTLLDIEDGGPLLTVERVALDNSGQVIELGSHCYRPDMYNFETTLVAR
  protein production: not failed

## MDPLEDVLTLLKTRSHLSASLVAGGRWAVRFDAPRVVKFNAVRRGTCQLEVDGIDEPIDLAEGDCYLLTRPRSFTLRSDPETAPVDGGAVFARAEDGIARAGQGDDVFLIGGGFSFGTRAQELLLDRLPPIVHVPADTPHAETVQWALTAIDQELTHRPMASTLIAEHLAVIMLVHVLRLHLERAPHAVSGWLAGLADPVVATALTCLHRDPARSWTVADLADTAAVSRSTLAARFKATVGQGPLEYLTRWRIELAARQLREGNATLASIAHSVGYGSESALSVAFKRVLGMPPGDYRKHPTMP
  protein production: failed
